Laboratory results reported in article PMC9173704.

Tests used:
[1] = biological target: recombinant mature PAM (Asn1-Gln351, plus (His)6) (Streptococcus pyogenes (GAS) strain AP53) (UniProt P49054)
[2] = biological target: recombinant streptococcal enolase (Sen) from GAS strain AP53 (Streptococcus pyogenes (GAS) strain AP53)
[3] = biological target: recombinant streptococcal enolase (Sen) from GAS strain AP53 (Streptococcus pyogenes (GAS) strain AP53); test: ELISA; Sen coated on high protein binding 96-well plates overnight at 4°C; hPg added at 25°C for 1 h; detected with HRP-conjugated monoclonal mouse-anti hPg; saturation curve
[4] = biological target: recombinant streptococcal enolase (Sen) from GAS strain AP53 (Streptococcus pyogenes (GAS) strain AP53); test: SPR; Sen amine-coupled to a CM-5 chip (~1,000 RU); hPg as analyte, 9 to 2,400 nM; 25°C, HBS-EP+ (10 mM Na-Hepes/150 mM NaCl/3 mM EDTA/0.05% polysorbate 20, pH 7.4); equilibrium (affinity) fit
[5] = biological target: recombinant streptococcal enolase (Sen) from GAS strain AP53 (Streptococcus pyogenes (GAS) strain AP53); test: SEC-MALS; each protein 100 μl of 1 mg/ml on a WTC-030S5 column, PBS, pH 7.4, flow rate 0.5 ml/min
[6] = biological target: recombinant streptococcal enolase (Sen) from GAS strain AP53 (Streptococcus pyogenes (GAS) strain AP53); test: AUC; sedimentation velocity, 20°C, 50 mM Na phosphate/0.1 M NaCl, pH 7.4; 30,000 rpm for Sen, 35,000 rpm for hEno; three protein dilutions; no concentration-dependent dissociation down to at least 0.1 mg/ml
[7] = biological target: plasminogen (Homo sapiens) (UniProt P00747); settings: cited from earlier work
UniProt P00747, sequence (P00747 20-810): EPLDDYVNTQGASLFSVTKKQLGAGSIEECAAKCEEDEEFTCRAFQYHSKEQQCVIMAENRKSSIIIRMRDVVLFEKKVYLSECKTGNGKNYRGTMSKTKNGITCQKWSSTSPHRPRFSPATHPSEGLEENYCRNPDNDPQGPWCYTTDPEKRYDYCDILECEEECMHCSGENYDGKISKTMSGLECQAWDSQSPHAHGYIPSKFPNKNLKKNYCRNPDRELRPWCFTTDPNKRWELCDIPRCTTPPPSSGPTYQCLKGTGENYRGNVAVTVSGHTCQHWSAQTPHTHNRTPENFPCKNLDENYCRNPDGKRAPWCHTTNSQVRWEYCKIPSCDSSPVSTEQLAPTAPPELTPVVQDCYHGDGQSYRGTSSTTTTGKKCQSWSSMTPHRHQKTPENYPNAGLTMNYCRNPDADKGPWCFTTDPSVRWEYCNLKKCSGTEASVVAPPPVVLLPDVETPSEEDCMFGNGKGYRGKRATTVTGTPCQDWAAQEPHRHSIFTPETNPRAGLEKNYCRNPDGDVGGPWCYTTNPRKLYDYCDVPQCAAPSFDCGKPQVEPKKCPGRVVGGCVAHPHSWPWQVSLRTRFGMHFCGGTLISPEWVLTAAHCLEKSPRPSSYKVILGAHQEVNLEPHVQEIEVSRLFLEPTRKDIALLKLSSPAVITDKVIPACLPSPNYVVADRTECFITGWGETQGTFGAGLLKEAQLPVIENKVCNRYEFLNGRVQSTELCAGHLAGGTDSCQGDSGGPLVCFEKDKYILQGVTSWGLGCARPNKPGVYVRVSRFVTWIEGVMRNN

recombinant streptococcal enolase (Sen) from GAS strain AP53 (Streptococcus pyogenes (GAS) strain AP53), sequence (A2RFE3 whole entry): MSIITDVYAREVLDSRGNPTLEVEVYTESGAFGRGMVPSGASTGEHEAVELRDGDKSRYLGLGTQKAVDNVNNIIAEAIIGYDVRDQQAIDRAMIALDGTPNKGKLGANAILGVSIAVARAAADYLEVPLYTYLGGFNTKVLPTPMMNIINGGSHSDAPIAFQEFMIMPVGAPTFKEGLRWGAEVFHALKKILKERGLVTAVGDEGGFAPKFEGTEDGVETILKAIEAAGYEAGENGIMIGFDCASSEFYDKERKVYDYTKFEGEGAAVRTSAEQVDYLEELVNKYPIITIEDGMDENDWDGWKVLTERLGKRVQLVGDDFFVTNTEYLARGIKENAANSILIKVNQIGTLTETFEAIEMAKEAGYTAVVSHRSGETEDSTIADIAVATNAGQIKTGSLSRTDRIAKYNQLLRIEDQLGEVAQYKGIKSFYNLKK

recombinant human plasminogen (hPg) (natural protein)
rate of activation of hPg by tPA on PAM-coated plates against free hPg, hydrolysis of S2251 [1]: 2.5 fold
rate of activation of hPg by tPA with Sen bound to DOPG vesicles against vesicles without Sen, hydrolysis of S2251 [2]: 6 to 8 fold
C50 [3]: 125 nM
C50 [4]: 111 nM

recombinant streptococcal enolase (Sen) from GAS strain AP53 (enzyme)
stoichiometry N [5]: 8
stoichiometry N [6]: 8

plasminogen-binding M-protein (PAM) (from UniProt P49054)
Kd [7]: 1 nM
